Test results reported in patent publication US20150218594A1, “CELL-FREE AND MINIMIZED METABOLIC REACTION CASCADES FOR THE PRODUCTION OF CHEMICALS” (CLARIANT PRODUKTE (DEUTSCHLAND) GMBH, priority 2012, published 2015).

Key:
[1] = Enzyme half-life at 50° C.
[2] = KDC activity (decarboxylation of 2-ketoisovalerate); assay type: biochemical; conditions: natural substrate
Protocol: (J. Mol. Catal. B-Enzym. 2009, 61, 30-35).
KDC activity: KDC activity was assayed by following the decarboxylation of 2-ketoisovalerate to isobutyraldehyde at 50° C. and 340 nm. Assay mixture contained 50 mM HEPES (pH 7), 0.1 mM thiamine-pyrophosphate, 2.5 mM MgCl2 and 60 mM 2-ketoisovalerate. Decarboxylation rate was calculated using the molar extinction coefficient of 2-ketoisovalerate (s=0.017 L mmol-1 cm-1). (J. Mol. Catal. B-Enzym. 2009, 61, 30-35)

[3] = Isobutanol tolerance of enzymes (I50); assay type: biochemical; conditions: 45° C.
[4] = Table 2, value with literature reference; cited from earlier work

B1: KDC: Branched-chain-2-oxo acid decarboxylase KDC (EC 4.1.1.72), Lactococcus lactis, Seq ID 16 (protein)
chain: MGSSHHHHHHSSGLVPRGSHMASMYTVGDYLLDRLHELGIEEIFGVPGDYNLQFLDQIISREDMKWIGNANELNASYMADGYARTKKAAAFLTTFGVGELSAINGLAGSYAENLPVVEIVGSPTSKVQNDGKFVHHTLADGDFKHFMKMHEPVTAARTLLTAENATYEIDRVLSQLLKERKPVYINLPVDVAAAKAEKPALSLEKESSTTNTTEQVILSKIEESLKNAQKPVVIAGHEVISFGLEKTVTQFVSETKLPITTLNFGKSAVDESLPSFLGIYNGKLSEISLKNFVESADFILMLGVKLTDSSTGAFTHHLDENKMISLNIDEGIIFNKVVEDFDFRAVVSSLSELKGIEYEGQYIDKQYEEFIPSSAPLSQDRLWQAVESLTQSNETIVAEQGTSFFGASTIFLKSNSRFIGQPLWGSIGYTFPAALGSQIADKESRHLLFIGDGSLQLTVQELGLSIREKLNPICFIINNDGYTVEREIHGPTQSYNDIPMWNYSKLPETFGATEDRVVSKIVRTENEFVSVMKEAQADVNRMYWIELVLEKEDAPKLLKKMGKLFAEQNK
modifications: Branched-chain ketoacid decarboxylase (EC 4.1.1.72), Lactococcus lactis Protein sequence including N-terminal His-Tag
Half-life, 50° C. [1]: >24 h
Activity, 50° C. [2]: 150 U/mg
I50: Isobutanol concentration which causes loss of 50% activity [3]: 4 (45° C.) % v/v
T-Optimum [4]: 50^[5] ° C.
